Test results published in the supplement of paper PMC12764529.
± gives the half width of the 95% confidence interval.

Assay: folding stability dG unfold from trypsin proteolysis; higher = more stable
Outline: (§1)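 Sequencing followed digestion of designed mini-proteins with trypsin and chymotrypsin, each at 11 concentrations in threefold dilutions together with a no-protease condition. The mini-proteins were under 80 residues, had no cysteine, sat in a PA-tagged cDNA display construct, and were kept only if AlphaFold2 dimer inter-PAE was above 15. From the counts, Bayesian fitting gave K50, and unfolding free energy was derived against a sequence-predicted unfolded-state K50 and a shared folded-state K50, per protease or combined.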

Sequence | folding stability dG unfold [kcal/mol]
SAGMKITVKAVLKKGEKEYEVEFEADSLEEIIGAILELYEKLNFDELRVKIKIGDKEYEIELPFLIPDESAG [r5_946_TrMRF] | 4.28 ± 0.41
SAGGSAGGSAGSITFTVPASEFTEEEILERLVEELGIPREKVDLVEIKETPDGKLKVTIKIPSAGGSAGGSA [r18_118_JUSTAS] | 2.86 ± 0.085
SAGGSAKLIVADVSPLPDGGFAVNVTFVGENGEPVAVKPFYAGSPEELLAALKKFAEENGYEVVVASAGGSA [r15_242_TrMRF] | 3.6 ± 0.12
SAGGEPPPVRVSFSVEEVTVGAGPVFVRRVVTYDPAEGRVSEFVEVFERGRGGLLGRSSRTVPAEELASAGG [r13_772_TrMRF] | 4.08 ± 0.15
SAGGSAGGSAPKILIVEDEKTGKLYAFVYDKDTKELYVAEFTYDKKTKKLTVKIKKVSLEDLSAGGSAGGSA [r18_505_TrROS_Hall] | 2.88 ± 0.09
SAGGSAGGSAGGWFYKRDPDGKPLEPRPVVVIKISYEISYDADGGWKLKLNISIYPVYWISAGGSAGGSAGG [r7_572_TrROS] | 3.58 ± 0.15
SAGMTLIIRVKVYNKDGELVEEREIEVPNMSVEEIAEALKKLPNVEKVKIEVFNADGEKKEIEIEVKPSAGG [r19_269_TrROS_Hall] | 3.08 ± 0.13
SAGGMIVANVNPETDKVTLLITRPVVLYDEETGELREEEVTLVITASLEELEKLEEESGLPLLIIPSSAGGS [r8_337_TrMRF] | 1.63 ± 0.1
SAGGSAGGSAMKIKIEVVKNKNGYYYLKVEIEVNGKKIEITIKVPKNEKVSIEELLKKILKKSAGGSAGGSA [r18_111_TrROS_Hall] | 2.78 ± 0.12
SAGGSAMKLVLTFPEGLPEIPLEELAKAIEDALPEDFEVKEIKVEPLPDGGLRLTFIVNDEEVEILSAGGSA [r15_451_TrMRF] | 2.52 ± 0.062
SAGGSAGGSAEELLKKLAEELGLEEGDEVTIEVDGKLIKIYFNKDGKIVKVEVYELDPEDLSAGGSAGGSAG [r3_468_TrROS_Hall] | 2.01 ± 0.11

Assay: folding stability dG unfold (combined trypsin and chymotrypsin); higher = more stable
Outline: as §1

Sequence | folding stability dG unfold [kcal/mol]
SAGGSAGGMKVRVKIEVEGKTLEIEIEVPEEKREEALEKAKKLAEKLAEELDVEVKIVEVEEEPSAGGSAGG [r6_459_TrROS_Hall] | 2.01 ± 0.12
SAGGSGIDFDIEFHNNHITIDIYMYDPNGQPIFEMTMTIPIPPVPPPPVPEVKVDDPEEAKEAKNQSAGGSA [r2_332_TrROS] | 1.89 ± 0.21
SAGGSAGGSEEELKKLLDNIKEVKVVENENGEKYVVFTVTDKNGKKITIVAKSPEARELAKKLSAGGSAGGS [r12_466_TrROS_Hall] | 1.96 ± 0.11
SAMIIVAMAPDRMLIIGPDGRVLVVDDPEKAIELIKELFPVPIIVIPVPEDSPVFRELLERLERERTGESAG [r14_235_TrMRF] | 2.91 ± 0.14
SAGGSAGGSAAMTVSEVSSSPDPSSDYLSFEVRTTETVKVPGTKAPVTTTVTTTPTKVSKLLSAGGSAGGSA [r18_41_JUSTAS] | -0.111 ± 0.12
SAGGSAGGSAGPYVVTIELPSGERIEVAVPAERLEEHVEELKPLVEPARITVRPVAPDALSAGGSAGGSAGG [r11_103_TrMRF] | 0.376 ± 0.053
SDLDPNSTLVFSAPFPVSDPDALLEHAETVARELGPDVRVERVVFDPNTPNVAVVEVSVPGGTVTLVYSRSA [r9_1079_TrMRF] | 1.33 ± 0.062
SAGPITITYDEETGTLTITATVAPGEEVTFKLTFVDEETGVVVTEVEETVTVKEGDTVTITVKVEKLPPSAG [r5_737_TrROS_Hall] | 3.34 ± 0.27
SAGGSAKPELVKKLKEALEEEFPDLKVEVVKVDKKNKKIYIKVKSEEEKKRIAELLKKLGIEVEIESAGGSA [r15_196_TrROS_Hall] | 3.18 ± 0.21
SAGGSAGGSASWITITGLLPGGRLVTTRYDPSTGSVSTETTPIPPVPAFPLGPENLALNFLLSAGGSAGGSA [r18_236_JUSTAS] | 0.746 ± 0.13
SAGGSAGGSYYMIEIEFPDTGQRITFPFKSLEEAKEFLPPGAPIREIEVQPIKPPVDPEQQNESAGGSAGGS [r12_851_TrROS] | 1.24 ± 0.11
SAGGFVTFKAPPVLIEAFKKAGLTPSEAKTLLLPVKFGDKEVVVEVTFYPETGEVKVKVLSFGTEFEAESAG [r5_545_TrMRF] | 3.07 ± 0.13
SAGMVVIEVKKDEVPVDPEKALVFEFGDKRYILVDGEKAEEIKDAFPNLDIKIKPVSPEELEKLLKAHSAGG [r19_271_TrMRF] | 1.27 ± 0.14
SAGGSAGGSAGGKHKIPITNVHVSPPNGYIHVTIRFPGDGKPIEIHFPVPPGEPITIEISAGGSAGGSAGGS [r10_940_TrROS] | 2.74 ± 0.2
SAGGSAGGSDTLEYEVPLEDGSTIRITLFPDGTARVELEDGTPVAEIEVPPDTSIEELIARIRSAGGSAGGS [r12_990_TrMRF] | 2.45 ± 0.076
SAGGSAGGSGSLLEKLGLEPNSTVTVTVTPEEAEKIRAEPRVKEIKREPTPEDTYLYTITVVASAGGSAGGS [r12_750_JUSTAS] | -0.302 ± 0.28
SAGGSAGGMKEGEEFEIELPDKYKVKIRVKDNIIEVEFPPGLRVRAEILENGEVKVYLPPELKPSAGGSAGG [r6_970_TrMRF] | 1.7 ± 0.21
SAGGSAGGSAGGDRLKIIIPFPPGMDIDQIAEELKPHFKKVEIEHDKEDGWVTIEVELDSAGGSAGGSAGGS [r10_1007_TrROS] | 0.939 ± 0.15
SAGGGPDLVIDVEILEIRVEPEPGKTATIRVRALIYNPETDTWTLAEFEIRIPDDGSVEVRFRVEPLRSAGG [r13_917_TrMRF] | 3.76 ± 0.074
SAGGSAGGSAGGAPVEVKTAVFRHPDNPRWYVLRVARLPGTGRLVVVLFDPETGEFAVFPSAGGSAGGSAGG [r7_923_TrMRF] | 1.67 ± 0.16
SNWITLKHTIKHPGREIKIEITAQPNPGGPYWIQVNIEVRDPNGEKEEVEITVPFRGMSIEDFLKNAADASA [r9_217_TrROS] | 3.78 ± 0.29
